The text below walks through data of patent US20220008548A1.

The experiment concerns the target IL-4R (UniProt P24394). The experiment is described as follows: cell-based or functional assay.

B1: anti-IL-4R:anti-CD63 conjugate (streptavidin-conjugated anti-IL-4R antibody combined 1:1 with biotinylated anti-CD63 antibody MEM-259) (protein, part only; not given: anti-CD63 antibody MEM-259, part only)
VH: EVQLVESGGGVVQPGRSLRLSCVASGFTFSDYGMHWVRQAPGKGLEWVAVIWYDGSIKYFRDSVKGRFTISRDNSKNTLYLQMNSLRVEDTAHYYCAKESSSWYFYHGLDVWGQGTMVTVSS
VL: EIVMTQSPLSLPVSPGEPASISCRSNQSLLHSNGNNYLAWYLQKPGQSPHLLIYLGSNRASGVPDRFSGSGSGTDFTLKISRVEAGDVGTYFCMQSLQAPPFTFGPGTKVEIKR
modifications: antibody conjugated to streptavidin
B1: the attenuation of IL-4R activity beyond the control constructs is greater than 10%.
